Results reported in patent US20190248902A1 (published 2019).
Changes are numbered by the printed parent chain.

B1: 75G3 (antibody, V domains shown)
VH: QVQLQQWGAGLLKPSETLSLTCAVYGGSLSGSYWSWIRQPPGKGLEWIGEINLSGSTNYNPSLKSRVTISVDTSKSQFSLTLRSVTAADTAVYYCARDYGGLDYWGQGTLVTVSS
VL: EIVLTQSPGTLSLSPGERATLSCRARQNVDSSYLAWYQQKPGQAPRLLIYGASSRATGIPDRFSGSGSGTDFTLTISRLEPEDFAVFYCQQYERSPWTFGQGTKVEIK
notes: Tested as hybridoma supernatant at normalized concentration
B2: 218G4 (antibody, V domains shown)
VH: QVQLVESGGGVVQPGRSLRLSCAASGFTFSSYGLHWVRQAPGKGLEWVAVIWYDGSNKYYADSVKGRFTISRDNSKNTLYLQMNSLRVEDTAVYYCANWYYYYYGMDVWGQGTTVTVSS
VL: QSVLTQPPSVSAAPGQKVTISCSGSSSNIGNNYVSWYQQLPGTAPKLLLYDSNKRPSGIPARFSGSKSGTSATLGITGLQTGDEADYYCGTWDSSLNTVVFGGGTKLTVL
notes: as for B1
B3: 198D2 (antibody, V domains shown)
VH: QVQLVESGGGVVQPGRSLRLSCAASGFTFRSYGMHWVRQAPGKGLEWVAVIIYDGSYKYYADSVKGRFTISRDNSKNTLYLQMNSLRAEDTAVYYCARTYSGGMDVWGQGTTVTVSS
VL: B2 VL with N31S, L47V, L49I, S52N, A61D, S95R, T98V, V99G
notes: as for B1
B4: 202A3 (antibody, V domains shown)
VH: QVQLEQSGAEVKKPGASVKVSCKASGYTFTSYDINWVRQATGQGLEWLGWMNPKRGNTGYAQKFQGRVTMTRNTSISTAHMELSSLRSEDTAVYYCARGRYSREDYYYYYDMDVWGQGTTVTVSS
VL: DIQMSQSPSSLSASVGDRVTITCRASQGIRNDLGWYQQKPGKAPKRLICAASRLQSGVPSRFSGSGSGTEFTLTISSLQPEDFAIYYCLQHHDYPFTFGPGTKVDIK
notes: as for B1
B5: 7E11 (antibody, V domains shown)
VH: QVQLVESGGGVVQPGRSLRLSCAASGFTFSSFGMHWVRQAPGKGLEWVAIIWHDGSNKYYADSVKGRFTISRDNSNNTLYLQMSSLRAEDTAVYYCARDLSMGGMDVWGQGTTVTVSS
VL: DIQMTQSPSSLSASVGDRVTIACRASQNIISYLNWYQQKPGKAPKFLIYTASSLQSGVPSRFSGSGSGTDFTLTISSLQPEDFAIYYCQQTYSTPLTFGGGTKVEIK
notes: as for B1
B6: 7G4 (antibody, V domains shown)
VH: QVQLVESGGGVVQPGRSLRLSCAASGFTFNNYVMHWVRQAPGKGLEWVAVIWYDGSNKYYADSVKGRFTISRDNSKNTLYLQMTSLRAEDTAVYYCAREKYSSNWYDYGMDVWGQGTTVTVSS
VL: DIQMTQSPSSLSASVGDRVTITCRASQGIRNDLGWYQQRPGKAPKRLIYAASSLQSGVPSRFSGSGSGTEFTLTISSLQPEDSATYYCLHQYSYPRTFGQGTKVEIK
notes: as for B1
B7: 176H4 (antibody, V domains shown)
VH: QVQLVESGGGVVQPGRSLRLSCAASGFTFSSYGMHWVRQAPGKGLEWVAIIWYDGSYKYYADSVKGRFTISRDNSKNTLYLQMSSLRAEDTAVYYCARDAHDFWSGYFAYWGQGALVTVSS
VL: DIVMTQTPLSLSVTPGQPASISCKSSQSLLHGDGKTYLYWYLQKPGQPPQLLIYEVSNRFSGVPDRFSGSGSGTDFTLKISRVEAEDVGIYYCMQSIQIPWTFGQGTRVEIK
notes: as for B1
B8: 194C10 (antibody, V domains shown)
VH: QVQLQQWGAGLLKPSETLSLTCAVSGGSFRYYYWSWIRQPPGKGLEWFGEINHSGSTNYNPSLKSRVTISIDTSKNQFSLKLRSVTAADTAVYYCARDYGAFDIWGQGTMVTVSS
VL: EIVLTQSPGTLSLSPGERATLSCRASPSVNSGYLAWYQQKPGQTPRLLIFGASSRATGIPDRFSASGSGADFTLTISRLEPEDFAVYFCQQYESSPWTFGQGTKVEIK
notes: as for B1
B9: 12D2 (antibody, V domains shown)
VH: EVQLVESGGGLVKPGGSLRLSCAASGFTFSSYSMNWVRQAPGKGLEWVSSISSSSSYIYYADSVKGRFTISRDNAKNSLYLQMNSLRAEDTAVYYCARLGDYWGQGTLVAVSS
VL: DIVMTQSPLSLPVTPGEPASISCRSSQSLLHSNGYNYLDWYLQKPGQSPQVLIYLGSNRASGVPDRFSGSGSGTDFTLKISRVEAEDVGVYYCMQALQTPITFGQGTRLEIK
notes: as for B1
B10: 25A4 (antibody, V domains shown)
VH: QVLLVQSGAEVKRPGASVKVSCKASGYTFTNYDINWVRQATGQGLEWMGWMYPNSGNTGYAQKFQGRVTMTRNTSISTAYMELSSLRSEDTAVYYCASSSGWYYFDYWGQGTLVTVSS
VL: DIVMTQFPDSLAVSLGERATIKCKSSQSVLYSSHNNNYLAWYQQKPGQPPKLLLYWASTRESGVPDRFSGSGSGTEFTLTISSLEAEDVAVYYCQQYYSTPPTFGQGTKVEIK
notes: as for B1
B11: 48B12 (antibody, V domains shown)
VH: EVQLLESGGGLVQPGGSLRLSCAASGFTFSSYAMNWVRQAPGKGLEWVSAISGRGGNTFYADSVKGRFTISRDNSKNTLYLQMNSLRAEDTAVYYCAKRETYNWNYEGFDYWGQGTLVTVSS
VL: SYELTQPPSVSVSPGQTARITCSGDALPKKYAYWYQQKSGQAPVLVIYEDSKRPSGIPERFSGSSSGTMATLTISGAQVEDEADYYCNSTDSSGNHVVFGGGTKLTVL
notes: as for B1
B12: 26C4 (antibody, V domains shown)
VH: B10 VH with L3Q, R13K, T41S, Y52N, K63R, S77N
VL: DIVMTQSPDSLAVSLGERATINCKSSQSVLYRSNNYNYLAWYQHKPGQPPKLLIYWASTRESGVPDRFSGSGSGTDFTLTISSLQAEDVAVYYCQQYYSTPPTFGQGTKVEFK
notes: as for B1
B13: 29H8 (antibody, V domains shown)
VH: B10 VH with L3Q, K12Q, R13K, Y52N, K63R, T78A
VL: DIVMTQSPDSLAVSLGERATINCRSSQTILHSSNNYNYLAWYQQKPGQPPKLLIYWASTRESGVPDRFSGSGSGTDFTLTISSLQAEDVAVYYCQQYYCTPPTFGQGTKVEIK
notes: as for B1
B14: 184E7 (antibody, V domains shown)
VH: QVQLVQSGAEVKTPGASVKVSCRASGYTFTSYNMHWVRQVPGQGLEWMGWINPNNGGSNYTQKFQGRVTMTRDTSISTAYMELSRLRSDDTAVYYCARKFGDWGQGTLVTVSS
VL: DIQMTQSPSSRSASIGERVTITCRASQGISNYLAWIQQKPGTAPKSLIYAASSLQSGVSSRFSGSGFGTDFTITISSVQREDFATYYCQQYNGYPFTFGHGTKVDIK
notes: as for B1

Biological target: T1, Cyno ASGR-1 (cynomolgus monkey, UniProt P07306 1-291 (human entry))
T1 construct: Expressed on HEK 293 cells or as membrane prep on beads; cDNA from XP_005582755; also called cynomologus monkey ASGR-1
T1 chain: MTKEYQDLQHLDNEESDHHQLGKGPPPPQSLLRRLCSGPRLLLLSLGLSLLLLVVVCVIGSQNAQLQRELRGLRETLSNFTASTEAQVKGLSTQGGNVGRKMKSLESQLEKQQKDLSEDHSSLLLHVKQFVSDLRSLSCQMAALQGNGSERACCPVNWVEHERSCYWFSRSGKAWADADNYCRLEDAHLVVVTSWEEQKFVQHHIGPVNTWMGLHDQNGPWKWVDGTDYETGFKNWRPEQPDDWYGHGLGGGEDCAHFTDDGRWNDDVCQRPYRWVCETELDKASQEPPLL
Assay: FACS on transfected HEK 293 cells or membrane preps on beads; Y = signal at least 2x irrelevant IgG
Procedure: (§1) Human ASGR-1-specific, ligand competing antibody samples were tested for binding to ASGR-1 from other species (cynomologus monkey ASGR-1, mouse ASGR-1, rat ASGR-1, dog ASGR-1, and pig ASGR-1) as well as to human ASGR-2 in FACS binding assays at normalized antibody concentrations. For cell-based assays, HEK 293 cells expressing the appropriate antigen of interest were mixed with antibody sample or controls, incubated for 1 hour at 4° C., and then washed twice. Cells with bound antibody were then incubated with Alexa Fluor® 647 IgG Fc fragment-specific detection antibody and 7-AAD viability stain for 15 minutes at 4° C., washed once and resuspended in FACS buffer. Samples were analyzed using a BD Accuri™ Flow Cytometer and an Intellicyt HyperCyt Autosampler. As a negative control, supernatants and controls were also screened against HEK 293 cells transfected with empty parental vector. […] For membrane-prep binding assays, ASGR-1 species specific membrane preps were used to coat LumAvidin® microspheres (beads) and tested for binding to selected hybridoma supernatants or controls. Briefly, ASGR-1 species specific membrane preps were incubated with streptavidin-coated LumAvidin® beads for 45 minutes in the dark at room temperature and washed twice. Beads were resuspeneded in FACS buffer containing Stabilguard®. Antigen-bound beads were then incubated with normalized antibody sample for 1 hour in the dark at room temperature, washed twice, incubated with Alexa Fluor® 488 IgG Fc fragment-specific detection antibody for 15 minutes in the dark at room temperature, washed once and finally resuspended in FACS buffer. Samples were analyzed using an Intellicyt iQue™ Screener Platform. FACS buffer supplemented with 1 mM Calcium Chloride was used in all steps. As a negative control, supernatants and controls were also screened against a non-ASGR-1 antigen membrane prep coated on the LumAvidin® beads.

| Binder | binding result |
| --- | --- |
| B1 | binds |
| B2 | binds |
| B3 | binds |
| B4 | binds |
| B5 | binds |
| B6 | binds |
| B7 | binds |
| B8 | binds |
| B9 | binds |
| B10 | binds |
| B11 | binds |
| B12 | binds |
| B13 | binds |
| B14 | binds |

Biological target: T2, Pig ASGR-1 (pig)
T2 construct: Expressed on HEK 293 cells or as membrane prep on beads; cDNA GenBank NM_001244458
T2 chain: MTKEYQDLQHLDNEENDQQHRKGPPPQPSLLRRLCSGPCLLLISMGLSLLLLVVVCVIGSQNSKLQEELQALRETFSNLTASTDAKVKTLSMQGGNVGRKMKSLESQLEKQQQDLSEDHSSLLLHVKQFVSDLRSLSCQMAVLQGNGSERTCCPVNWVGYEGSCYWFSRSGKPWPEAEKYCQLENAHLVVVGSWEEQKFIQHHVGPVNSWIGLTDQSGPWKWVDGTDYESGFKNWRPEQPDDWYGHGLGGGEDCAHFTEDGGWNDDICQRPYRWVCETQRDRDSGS
Assay: as above
Procedure: as §1

| Binder | binding result |
| --- | --- |
| B1 | binds |
| B2 | binds |
| B3 | binds |
| B4 | binds |
| B5 | binds |
| B6 | binds |
| B7 | binds |
| B8 | binds |
| B9 | binds |
| B10 | binds |
| B11 | binds |
| B12 | binds |
| B13 | binds |
| B14 | binds |

Biological target: T3, Human ASGR-2 (human, UniProt P07307 1-311)
T3 construct: Expressed on HEK 293 cells; cDNA GenBank NM_080913.3; also called huASGR-2; hASGR-2
T3 sequence: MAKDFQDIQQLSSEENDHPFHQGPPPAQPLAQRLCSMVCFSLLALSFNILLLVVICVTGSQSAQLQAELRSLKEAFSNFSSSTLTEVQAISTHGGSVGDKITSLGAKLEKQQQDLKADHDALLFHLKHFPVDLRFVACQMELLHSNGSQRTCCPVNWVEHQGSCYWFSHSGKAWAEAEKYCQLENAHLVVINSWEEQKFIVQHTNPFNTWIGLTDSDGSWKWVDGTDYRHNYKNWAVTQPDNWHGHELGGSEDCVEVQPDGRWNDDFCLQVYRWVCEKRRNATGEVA
Assay: FACS on transfected HEK 293 cells; binding = signal at least 2x irrelevant IgG
Procedure: as §1

| Binder | binding result |
| --- | --- |
| B1 | no binding |
| B2 | no binding |
| B3 | no binding |
| B4 | no binding |
| B5 | no binding |
| B6 | no binding |
| B7 | no binding |
| B8 | no binding |
| B9 | no binding |
| B10 | no binding |
| B11 | no binding |
| B12 | no binding |
| B13 | no binding |
| B14 | no binding |
